Test results from publication PMC4861432, “Naturally Occurring Isoleucyl-tRNA Synthetase without tRNA-dependent Pre-transfer Editing” (The Journal of Biological Chemistry, 2016).

Assays:
ScIleRS = target: T1, ScIleRS (Saccharomyces cerevisiae, UniProt P09436); test: ATP-PPi exchange inhibition, global fit; format: biochemical
T1 construct: gene ILS1; pET28b, E. coli Rosetta(DE3), Ni-NTA (His tag) and size-exclusion chromatography, monomer
T1 sequence (P09436 1-1072): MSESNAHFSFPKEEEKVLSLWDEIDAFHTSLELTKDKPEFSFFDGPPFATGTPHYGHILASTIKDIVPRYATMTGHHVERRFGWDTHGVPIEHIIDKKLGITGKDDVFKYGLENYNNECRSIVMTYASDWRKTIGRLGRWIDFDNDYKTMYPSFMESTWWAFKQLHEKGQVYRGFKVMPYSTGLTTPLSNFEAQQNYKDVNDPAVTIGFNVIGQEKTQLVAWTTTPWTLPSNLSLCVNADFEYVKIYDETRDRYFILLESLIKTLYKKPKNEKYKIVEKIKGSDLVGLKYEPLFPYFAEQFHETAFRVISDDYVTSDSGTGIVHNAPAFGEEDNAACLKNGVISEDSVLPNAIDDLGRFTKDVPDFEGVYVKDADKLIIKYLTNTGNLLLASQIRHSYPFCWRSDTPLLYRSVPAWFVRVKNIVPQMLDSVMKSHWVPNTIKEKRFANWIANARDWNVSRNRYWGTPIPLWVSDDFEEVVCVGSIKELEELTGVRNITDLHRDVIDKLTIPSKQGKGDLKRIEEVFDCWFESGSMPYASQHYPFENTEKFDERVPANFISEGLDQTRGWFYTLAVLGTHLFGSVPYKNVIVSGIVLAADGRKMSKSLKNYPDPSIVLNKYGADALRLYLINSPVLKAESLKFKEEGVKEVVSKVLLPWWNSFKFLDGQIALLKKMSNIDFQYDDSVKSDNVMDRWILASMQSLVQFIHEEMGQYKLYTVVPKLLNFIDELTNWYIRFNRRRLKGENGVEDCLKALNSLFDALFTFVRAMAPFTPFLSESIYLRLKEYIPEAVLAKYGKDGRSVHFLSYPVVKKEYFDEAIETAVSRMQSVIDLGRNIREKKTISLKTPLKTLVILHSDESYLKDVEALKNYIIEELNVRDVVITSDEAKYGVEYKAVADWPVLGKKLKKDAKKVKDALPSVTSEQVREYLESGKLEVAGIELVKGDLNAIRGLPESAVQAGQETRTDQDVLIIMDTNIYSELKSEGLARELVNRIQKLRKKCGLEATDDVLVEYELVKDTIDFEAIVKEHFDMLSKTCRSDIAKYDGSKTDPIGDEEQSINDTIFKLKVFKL

SgIleRS = target: T2, SgIleRS (Streptomyces griseus, UniProt B1W0J8); test: ATP-PPi exchange inhibition, global fit; format: biochemical
T2 construct: gene ileS; ileS from genomic DNA in pET28b, E. coli BL21(DE3), Ni-NTA purified (His tag), ZnCl2 added during growth
T2 sequence (B1W0J8 1-1047): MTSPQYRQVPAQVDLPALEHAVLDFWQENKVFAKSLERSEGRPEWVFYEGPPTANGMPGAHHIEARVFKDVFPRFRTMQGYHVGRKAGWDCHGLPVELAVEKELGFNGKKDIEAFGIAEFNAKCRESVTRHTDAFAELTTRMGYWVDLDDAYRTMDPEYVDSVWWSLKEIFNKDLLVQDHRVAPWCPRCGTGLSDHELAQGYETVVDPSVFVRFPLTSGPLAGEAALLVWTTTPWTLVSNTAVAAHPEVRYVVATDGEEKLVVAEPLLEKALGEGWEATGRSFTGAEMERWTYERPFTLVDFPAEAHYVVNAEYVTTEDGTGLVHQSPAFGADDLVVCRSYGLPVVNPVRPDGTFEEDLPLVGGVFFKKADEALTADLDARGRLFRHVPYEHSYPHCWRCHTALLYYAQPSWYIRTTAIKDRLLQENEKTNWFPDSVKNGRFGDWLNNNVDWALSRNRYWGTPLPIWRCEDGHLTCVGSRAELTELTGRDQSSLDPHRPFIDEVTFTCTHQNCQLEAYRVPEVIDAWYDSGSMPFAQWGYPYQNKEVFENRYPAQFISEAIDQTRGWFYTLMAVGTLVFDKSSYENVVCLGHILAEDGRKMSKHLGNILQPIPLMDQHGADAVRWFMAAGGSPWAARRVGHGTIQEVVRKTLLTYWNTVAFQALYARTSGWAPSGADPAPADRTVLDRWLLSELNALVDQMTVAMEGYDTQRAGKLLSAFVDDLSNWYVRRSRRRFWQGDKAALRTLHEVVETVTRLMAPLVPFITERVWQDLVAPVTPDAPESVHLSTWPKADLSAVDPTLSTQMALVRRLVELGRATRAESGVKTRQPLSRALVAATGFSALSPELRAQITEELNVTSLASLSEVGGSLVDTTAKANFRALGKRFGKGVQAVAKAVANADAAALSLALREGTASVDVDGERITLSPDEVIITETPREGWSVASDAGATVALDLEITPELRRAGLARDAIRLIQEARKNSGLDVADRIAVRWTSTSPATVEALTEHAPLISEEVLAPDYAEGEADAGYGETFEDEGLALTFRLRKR

[1] = substrate: CC(C)[C@H](N)C(=O)O; test: ATP-PPi exchange (amino acid activation); format: biochemical, Streptomyces griseus; details: 30 °C, pH 7.5, 4 mM ATP, 1 mM PPi, 20 mM MgCl2, no tRNA
Description: (§1) ATP-PPi exchange (amino acid activation) on SgIleRS

[2] = substrate: CC[C@H](C)[C@H](N)C(=O)O; test: ATP-PPi exchange (amino acid activation); format: biochemical, Streptomyces griseus; details: 30 °C, pH 7.5, 4 mM ATP, 1 mM PPi, 20 mM MgCl2, no tRNA
Description: as §1

[3] = substrate: CC(C)[C@H](N)C(=O)O; test: ATP-PPi exchange (amino acid activation); format: biochemical, Saccharomyces cerevisiae; details: 30 °C, pH 7.5, 4 mM ATP, 1 mM PPi, 20 mM MgCl2, no tRNA
Description: (§2) ATP-PPi exchange (amino acid activation) on ScIleRS

[4] = substrate: CC[C@H](C)[C@H](N)C(=O)O; test: ATP-PPi exchange (amino acid activation); format: biochemical, Saccharomyces cerevisiae; details: 30 °C, pH 7.5, 4 mM ATP, 1 mM PPi, 20 mM MgCl2, no tRNA
Description: as §2

C/C(=C\C(=O)OCCCCCCCCC(=O)O)C[C@@H]1OC[C@H](C[C@@H]2O[C@H]2[C@@H](C)[C@H](C)O)[C@@H](O)[C@H]1O [mupirocin]
Ki (ScIleRS): 0.028 mM | Ki (SgIleRS): 10 mM

B1: SgIleRS (Streptomyces griseus subsp. griseus NBRC 13350) (protein)
chain: MTSPQYRQVPAQVDLPALEHAVLDFWQENKVFAKSLERSEGRPEWVFYEGPPTANGMPGAHHIEARVFKDVFPRFRTMQGYHVGRKAGWDCHGLPVELAVEKELGFNGKKDIEAFGIAEFNAKCRESVTRHTDAFAELTTRMGYWVDLDDAYRTMDPEYVDSVWWSLKEIFNKDLLVQDHRVAPWCPRCGTGLSDHELAQGYETVVDPSVFVRFPLTSGPLAGEAALLVWTTTPWTLVSNTAVAAHPEVRYVVATDGEEKLVVAEPLLEKALGEGWEATGRSFTGAEMERWTYERPFTLVDFPAEAHYVVNAEYVTTEDGTGLVHQSPAFGADDLVVCRSYGLPVVNPVRPDGTFEEDLPLVGGVFFKKADEALTADLDARGRLFRHVPYEHSYPHCWRCHTALLYYAQPSWYIRTTAIKDRLLQENEKTNWFPDSVKNGRFGDWLNNNVDWALSRNRYWGTPLPIWRCEDGHLTCVGSRAELTELTGRDQSSLDPHRPFIDEVTFTCTHQNCQLEAYRVPEVIDAWYDSGSMPFAQWGYPYQNKEVFENRYPAQFISEAIDQTRGWFYTLMAVGTLVFDKSSYENVVCLGHILAEDGRKMSKHLGNILQPIPLMDQHGADAVRWFMAAGGSPWAARRVGHGTIQEVVRKTLLTYWNTVAFQALYARTSGWAPSGADPAPADRTVLDRWLLSELNALVDQMTVAMEGYDTQRAGKLLSAFVDDLSNWYVRRSRRRFWQGDKAALRTLHEVVETVTRLMAPLVPFITERVWQDLVAPVTPDAPESVHLSTWPKADLSAVDPTLSTQMALVRRLVELGRATRAESGVKTRQPLSRALVAATGFSALSPELRAQITEELNVTSLASLSEVGGSLVDTTAKANFRALGKRFGKGVQAVAKAVANADAAALSLALREGTASVDVDGERITLSPDEVIITETPREGWSVASDAGATVALDLEITPELRRAGLARDAIRLIQEARKNSGLDVADRIAVRWTSTSPATVEALTEHAPLISEEVLAPDYAEGEADAGYGETFEDEGLALTFRLRKR
notes: ileS from genomic DNA in pET28b, E. coli BL21(DE3), Ni-NTA purified (His tag), ZnCl2 added during growth
kcat [1]: 19.3 ± 0.4 s⁻¹ | kcat [2]: 20.6 ± 1.4 s⁻¹

B2: ScIleRS (Saccharomyces cerevisiae S288C) (protein)
chain: MSESNAHFSFPKEEEKVLSLWDEIDAFHTSLELTKDKPEFSFFDGPPFATGTPHYGHILASTIKDIVPRYATMTGHHVERRFGWDTHGVPIEHIIDKKLGITGKDDVFKYGLENYNNECRSIVMTYASDWRKTIGRLGRWIDFDNDYKTMYPSFMESTWWAFKQLHEKGQVYRGFKVMPYSTGLTTPLSNFEAQQNYKDVNDPAVTIGFNVIGQEKTQLVAWTTTPWTLPSNLSLCVNADFEYVKIYDETRDRYFILLESLIKTLYKKPKNEKYKIVEKIKGSDLVGLKYEPLFPYFAEQFHETAFRVISDDYVTSDSGTGIVHNAPAFGEEDNAACLKNGVISEDSVLPNAIDDLGRFTKDVPDFEGVYVKDADKLIIKYLTNTGNLLLASQIRHSYPFCWRSDTPLLYRSVPAWFVRVKNIVPQMLDSVMKSHWVPNTIKEKRFANWIANARDWNVSRNRYWGTPIPLWVSDDFEEVVCVGSIKELEELTGVRNITDLHRDVIDKLTIPSKQGKGDLKRIEEVFDCWFESGSMPYASQHYPFENTEKFDERVPANFISEGLDQTRGWFYTLAVLGTHLFGSVPYKNVIVSGIVLAADGRKMSKSLKNYPDPSIVLNKYGADALRLYLINSPVLKAESLKFKEEGVKEVVSKVLLPWWNSFKFLDGQIALLKKMSNIDFQYDDSVKSDNVMDRWILASMQSLVQFIHEEMGQYKLYTVVPKLLNFIDELTNWYIRFNRRRLKGENGVEDCLKALNSLFDALFTFVRAMAPFTPFLSESIYLRLKEYIPEAVLAKYGKDGRSVHFLSYPVVKKEYFDEAIETAVSRMQSVIDLGRNIREKKTISLKTPLKTLVILHSDESYLKDVEALKNYIIEELNVRDVVITSDEAKYGVEYKAVADWPVLGKKLKKDAKKVKDALPSVTSEQVREYLESGKLEVAGIELVKGDLNAIRGLPESAVQAGQETRTDQDVLIIMDTNIYSELKSEGLARELVNRIQKLRKKCGLEATDDVLVEYELVKDTIDFEAIVKEHFDMLSKTCRSDIAKYDGSKTDPIGDEEQSINDTIFKLKVFKL
notes: pET28b, E. coli Rosetta(DE3), Ni-NTA (His tag) and size-exclusion chromatography, monomer
kcat [3]: 8.6 ± 1 s⁻¹ | kcat [4]: 11.4 ± 0.8 s⁻¹
